From article PMC12498388, “Niraparib Demonstrates Therapeutic Potential in Multiple Sclerosis through Inhibition of IL-17A Receptor Interaction and Promotion of Remyelination” (ACS Chemical Neuroscience, 2025)

Legend:
[1] = target: IL-17RA/IL-17RC heterodimeric receptor (UniProt Q96F46)
[2] = target: T1, IL-17A with IL-17RA/IL-17RC receptor (HEK-Blue IL-17 reporter cells) (Homo sapiens, UniProt Q16552); test: SEAP reporter assay in HEK-Blue IL-17 cells, QUANTI-Blue […] nm; type: cell-based; details: IL-17A-stimulated cells, 37 °C overnight, 1 nM to 100 μM, four-parameter fit; indirect downstream reporter read-out (NF-kB/AP-1), binding site not shown experimentally
T1 construct: gene IL17A; IL-17A ligand supplied by the manufacturer, added to HEK 293 cells stably transfected with IL-17RA/IL-17RC heterodimeric receptor and Act1 adaptor; SEAP reporter (NF-kB/AP-1); with Interleukin-17 receptor A; Interleukin-17 receptor C

IL-17A, sequence (Q16552 24-155): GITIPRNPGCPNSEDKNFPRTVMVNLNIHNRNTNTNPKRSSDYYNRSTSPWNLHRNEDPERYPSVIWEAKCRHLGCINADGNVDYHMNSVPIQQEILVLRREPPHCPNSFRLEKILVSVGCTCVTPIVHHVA

SEAP release of HEK-Blue IL-17 reporter cells (QUANTI-Blue, 630 nm) with IL-17A; percent inhibition by the small molecule Niraparib, 1 nM to 100 uM (22% at 1 uM, 51% at 10 uM, 99.3% at 100 uM) [1] [%] | IC50 [2] [µM] | Molecule
99.3 | – | IL-17A (from UniProt Q16552 24-155) (ligand)
– | 70 | NC(=O)c1cccc2cn(-c3ccc([C@@H]4CCCNC4)cc3)nc12 [Niraparib]
